Common to all, as to experiment: cryo-EM structure
Series [1] deals with the molecule itself.
Series [2] deals with the molecule itself. This is another data set of the same source.
Series [3] concerns the molecule itself. This is another data set of the same source.

Usually stoichiometry N stands for a count of units in the complex or per binding partner.

Where two headings read alike, the source gives them in different places.

B1: Csy3 (natural protein)
chain: MSKPILSTASVLAFERKLDPSDALMSAGAWAQRDASQEWPAVTVREKSVRGTISNRLKTKDRDPAKLDASIQSPNLQTVDVANLPSDADTLKVRFTLRVLGGAGTPSACNDAAYRDKLLQTVATYVNDQGFAELARRYAHNLANARFLWRNRVGAEAVEVRINHIRQGEVARAWRFDALAIGLRDFKADAELDALAELIASGLSGSGHVLLEVVAFARIGDGQEVFPSQELILDKGDKKGQKSKTLYSVRDAAAIHSQKIGNALRTIDTWYPDEDGLGPIAVEPYGSVTSQGKAYRQPKQKLDFYTLLDNWVLRDEAPAVEQQHYVIANLIRGGVFGEAEEK
As to B1, the “stoichiometry N” value in “cryo-EM structure [1]” is 4; in the series “cryo-EM structure [2]”, 6; in the series “cryo-EM structure [3]”, 5.
